Experimental data taken from IntAct's records for PubMed 29039417.

B1: BBSome complex member BBS2 (Homo sapiens), Q9BXC9 (parent)
chain: MLLPVFTLKLRHKISPRMVAIGRYDGTHPCLAAATQTGKVFIHNPHTRNQHVSASRVFQSPLESDVSLLSINQAVSCLTAGVLNPELGYDALLVGTQTNLLAYDVYNNSDLFYREVADGANAIVLGTLGDISSPLAIIGGNCALQGFNHEGSDLFWTVTGDNVNSLALCDFDGDGKKELLVGSEDFDIRVFKEDEIVAEMTETEIVTSLCPMYGSRFGYALSNGTVGVYDKTSRYWRIKSKNHAMSIHAFDLNSDGVNELITGWSNGKVDARSDRTGEVIFKDNFSSAIAGVVEGDYRMDGHIQLICCSVDGEIRGYLPGTAEMRGNLMDTSAEQDLIRELSQKKQNLLLELRNYEENAKAELASPLNEADGHRGIIPANTRLHTTLSVSLGNETQTAHTELRISTSNDTIIRAVLIFAEGIFTGESHVVHPSIHNLSSSICIPIVPPKDVPVDLHLKAFVGYRSSTQFHVFESTRQLPRFSMYALTSLDPASEPISYVNFTIAERAQRVVVWLGQNFLLPEDTHIQNAPFQVCFTSLRNGGHLHIKIKLSGEITINTDDIDLAGDIIQSMASFFAIEDLQVEADFPVYFEELRKVLVKVDEYHSVHQKLSADMADHSNLIRSLLVGAEDARLMRDMKTMKSRYMELYDLNRDLLNGYKIRCNNHTELLGNLKAVNQAIQRAGRLRVGKPKNQVITACRDAIRSNNINTLFKIMRVGTASS
partner: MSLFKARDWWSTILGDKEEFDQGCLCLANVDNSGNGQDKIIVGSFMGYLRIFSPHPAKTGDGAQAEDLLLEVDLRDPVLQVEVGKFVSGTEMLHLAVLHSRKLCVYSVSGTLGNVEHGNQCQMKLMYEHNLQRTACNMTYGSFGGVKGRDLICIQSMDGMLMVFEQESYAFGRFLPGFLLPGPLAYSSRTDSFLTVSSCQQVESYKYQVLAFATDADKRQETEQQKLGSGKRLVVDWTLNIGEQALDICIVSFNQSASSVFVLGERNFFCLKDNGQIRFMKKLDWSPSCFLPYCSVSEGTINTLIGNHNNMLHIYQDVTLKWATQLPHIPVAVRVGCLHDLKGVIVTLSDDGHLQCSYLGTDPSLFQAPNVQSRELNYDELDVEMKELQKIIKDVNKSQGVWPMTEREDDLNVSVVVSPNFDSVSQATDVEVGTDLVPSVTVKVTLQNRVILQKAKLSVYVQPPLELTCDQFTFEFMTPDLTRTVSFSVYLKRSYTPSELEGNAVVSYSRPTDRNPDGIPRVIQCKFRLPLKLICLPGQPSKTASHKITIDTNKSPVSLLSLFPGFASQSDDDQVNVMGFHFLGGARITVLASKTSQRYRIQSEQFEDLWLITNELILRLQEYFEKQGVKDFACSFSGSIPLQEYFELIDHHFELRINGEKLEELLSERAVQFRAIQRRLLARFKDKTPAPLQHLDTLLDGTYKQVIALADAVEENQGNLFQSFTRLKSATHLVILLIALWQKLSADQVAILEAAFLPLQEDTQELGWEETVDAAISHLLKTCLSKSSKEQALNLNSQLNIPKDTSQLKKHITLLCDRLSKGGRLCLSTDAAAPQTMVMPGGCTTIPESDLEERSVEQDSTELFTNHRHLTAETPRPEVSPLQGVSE

Variants of: B1
Conditions: with pthb1_human BBS9, Q3SYG4

Variant	effect of a mutation on the interaction
E356S	disrupting interaction strength
E356L	disrupting interaction strength
E356A	with no effect
E356P	disrupting interaction strength
E356K	with no effect
S365C	disrupting interaction strength
S365K	with no effect
S365A	with no effect
S365E	with no effect
D336A	with no effect
D336E	with no effect
D336K	with no effect
K344E	with no effect
K344A	with no effect
E362Y	disrupting interaction strength
E362A	with no effect
E362K	with no effect
P366E	with no effect
P366A	with no effect
A359E	with no effect
A359K	with no effect
K345A	with no effect
K345E	with no effect

Variant	effect of a mutation on the interaction
A364K	with no effect
A364E	with no effect
R353E	with no effect
R353A	with no effect
R353K	with no effect
E357A	with no effect
E357K	with no effect
E334K	with no effect
E334A	with no effect
R339E	with no effect
R339K	with no effect
R339A	with no effect
N358A	with no effect
N358E	with no effect
N358K	with no effect
S342E	with no effect
S342K	with no effect
S342A	with no effect
K360A	with no effect
K360E	with no effect
E340A	with no effect
E340K	with no effect
N354K	with no effect

Variant	effect of a mutation on the interaction
N354E	with no effect
N354A	with no effect
Q343A	with no effect
Q343E	with no effect
Q343K	with no effect
E351A	with no effect
E351K	with no effect
L352K	with no effect
L352A	with no effect
L352E	with no effect
L350E	with no effect
L350K	with no effect
L350A	with no effect
L348E	with no effect
L348A	with no effect
L348K	with no effect
I338E	with no effect
I338K	with no effect
I338A	with no effect
L341A	with no effect
L341E	with no effect
L341K	with no effect
Q335E	with no effect

Variant	effect of a mutation on the interaction
Q335A	with no effect
Q335K	with no effect
L363E	with no effect
L363K	with no effect
L363A	with no effect
Y355A	with no effect
Y355K	with no effect
Y355E	with no effect
Q346A	with no effect
Q346K	with no effect
Q346E	with no effect
L337K	with no effect
L337E	with no effect
L337A	with no effect
N347A	with no effect
N347E	with no effect
N347K	with no effect
A361E	with no effect
A361K	with no effect
L349K	with no effect
L349A	with no effect
L349E	with no effect

Second part, the variant after the results:

effect of a mutation on the interaction	Variant
with no effect	T386A
with no effect	T386K
with no effect	T386E
with no effect	P366K
disrupting interaction strength	V389E
disrupting interaction strength	V389K
disrupting interaction strength	V389S
with no effect	V389A
disrupting interaction strength	S390E
with no effect	S390K
with no effect	S390A
disrupting interaction strength	S390G
with no effect	H373K
with no effect	H373A
with no effect	H373E
with no effect	T385E
disrupting interaction strength	T385A
with no effect	T385K
with no effect	G392E
with no effect	G392K
with no effect	G392A
with no effect	N368K

effect of a mutation on the interaction	Variant
with no effect	N368E
with no effect	N368A
with no effect	N393A
disrupting interaction strength	I377R
with no effect	I377A
disrupting interaction strength	I377T
with no effect	I377E
with no effect	I377K
with no effect	L367A
with no effect	L367K
with no effect	L367E
with no effect	P378E
with no effect	P378A
with no effect	P378K
with no effect	L383A
with no effect	L383K
with no effect	L383E
with no effect	I376A
with no effect	I376K
with no effect	I376E
disrupting interaction strength	I376V
disrupting interaction strength	L387K

effect of a mutation on the interaction	Variant
with no effect	L387E
with no effect	L387A
with no effect	S388K
disrupting interaction strength	S388P
with no effect	S388A
with no effect	S388E
with no effect	A370K
with no effect	A370E
with no effect	T381A
with no effect	T381K
with no effect	T381E
with no effect	G372K
with no effect	G372E
with no effect	G372A
with no effect	D371E
with no effect	D371K
with no effect	D371A
disrupting interaction strength	D371V
with no effect	H384E
with no effect	H384A
with no effect	H384K
with no effect	R382K

effect of a mutation on the interaction	Variant
disrupting interaction strength	R382E
disrupting interaction strength	R382A
with no effect	R374E
with no effect	R374A
with no effect	R374K
disrupting interaction strength	R374W
with no effect	A379E
with no effect	A379K
with no effect	G375A
disrupting interaction strength	G375E
with no effect	G375K
disrupting interaction strength	N380A
with no effect	N380K
disrupting interaction strength	N380E
with no effect	L391A
with no effect	L391K
with no effect	L391E
with no effect	E369A
with no effect	E369K
